PMC7954794 (2021)

B1: S. cerevisiae Abp1 (full length; SH3 domain 535-592 mutated) / Hua2 (parent complex)
chain 1: MALEPIDYTTHSREIDAEYLKIVRGSDPDTTWLIISPNAKKEYEPESTGSSFHDFLQLFDETKVQYGLARVSPPGSDVEKIIIIGWCPDSAPLKTRASFAANFAAVANNLFKGYHVQVTARDEDDLDENELLMKISNAAGARYSIQTSSKQQGKASTPPVKKSFTPSKSPAPVSKKEPVKTPSPAPAAKISSRVNDNNDDDDWNEPELKERDFDQAPLKPNQSSYKPIGKIDLQKVIAEEKAKEDPRLVQKPTAAGSKIDPSSDIANLKNESKLKRDSEFNSFLGTTKPPSMTESSLKNDDDKVIKGFRNEKSPAQLWAERKAKQNSGNAETKAEAPKPEVPEDEPEGEPDVKDLKSKFEGLAASEKEEEEMENKFAPPPKKSEPTIISPKPFSKPQEPVKAEEAEQPKTDYKKIGNPLPGMHIEADNEEEPEENDDDWDDDEDEAAQPPLPSRNVASGAPVQKEEPEQEEIAPSLPSRNSIPAPKQEEAPEQAPEEEIEEEAEEAAPQLPSRSSAAPPPPPRRATPEKKPKENPWATAEYDYDAAEDNELTFVENDKIINIEFVDDDWWLGELEKDGSKGLFPSNYVSLGN
chain 2: MQQTKFGKMYLDHDSVVEYSEDEIVEADRITLGYKKRLSMIENQMRHLLEDFSLDVQQIEPILADLQKYYDAFLQLLQKRNKSLQCKRSTHQPVPSPMNSQTSTNAKVNLSGKLMKFQLNSVQKFDEENILRILQNKIEFEHYFQIDKGKKQKVLLLAVYQCLNGPTRLHKVLNIEGIIHNNSIRTILGKQVSSSKWTVFLYDVKLVLLAHRQDVPNLETSKMIVRYGDLFPCALYFKDHTAY

Variants of: B1
Test: DHFR protein-fragment complementation in yeast (Abp1-DHFR F[1,2] x partner-DHFR F[3]), deep mutational scanning, second methotrexate selection vs reference; S. cerevisiae, DHFR-PCA selection in liquid with methotrexate at 30 C, two 72 h selections (the score uses the second); reference = the pre-selection culture

screen value	Variant
0.518 DMS score: mean over two replicates of log2(f_test/f_ref + 0.5)/ln 2, minus the synonymous-codon median (not a log2 …	chain 1 MALEPIDYTTHSREIDAEYLKIVRGSDPDTTWLIISPNAKKEYEPESTGSSFHDFLQLFDETKVQYGLARVSPPGSDVEKIIIIGWCPDSAPLKTRASFAANFAAVANNLFKGYHVQVTARDEDDLDENELLMKISNAAGARYSIQTSSKQQGKASTPPVKKSFTPSKSPAPVSKKEPVKTPSPAPAAKISSRVNDNNDDDDWNEPELKERDFDQAPLKPNQSSYKPIGKIDLQKVIAEEKAKEDPRLVQKPTAAGSKIDPSSDIANLKNESKLKRDSEFNSFLGTTKPPSMTESSLKNDDDKVIKGFRNEKSPAQLWAERKAKQNSGNAETKAEAPKPEVPEDEPEGEPDVKDLKSKFEGLAASEKEEEEMENKFAPPPKKSEPTIISPKPFSKPQEPVKAEEAEQPKTDYKKIGNPLPGMHIEADNEEEPEENDDDWDDDEDEAAQPPLPSRNVASGAPVQKEEPEQEEIAPSLPSRNSIPAPKQEEAPEQAPEEEIEEEAEEAAPQLPSRSSAAPPPPPRRATPEKKPKENYWATAEYDYDAAEDNELTFVENDKIINIEFVDDDWWLGELEKDGSKGLFPSNYVSLGN [chain 1 P535Y]
0.515 DMS score: mean over two replicates of log2(f_test/f_ref + 0.5)/ln 2, minus the synonymous-codon median (not a log2 …	chain 1 MALEPIDYTTHSREIDAEYLKIVRGSDPDTTWLIISPNAKKEYEPESTGSSFHDFLQLFDETKVQYGLARVSPPGSDVEKIIIIGWCPDSAPLKTRASFAANFAAVANNLFKGYHVQVTARDEDDLDENELLMKISNAAGARYSIQTSSKQQGKASTPPVKKSFTPSKSPAPVSKKEPVKTPSPAPAAKISSRVNDNNDDDDWNEPELKERDFDQAPLKPNQSSYKPIGKIDLQKVIAEEKAKEDPRLVQKPTAAGSKIDPSSDIANLKNESKLKRDSEFNSFLGTTKPPSMTESSLKNDDDKVIKGFRNEKSPAQLWAERKAKQNSGNAETKAEAPKPEVPEDEPEGEPDVKDLKSKFEGLAASEKEEEEMENKFAPPPKKSEPTIISPKPFSKPQEPVKAEEAEQPKTDYKKIGNPLPGMHIEADNEEEPEENDDDWDDDEDEAAQPPLPSRNVASGAPVQKEEPEQEEIAPSLPSRNSIPAPKQEEAPEQAPEEEIEEEAEEAAPQLPSRSSAAPPPPPRRATPEKKPKENPWATAEYDYDAAEDNELTFVENDKIINIEFVDDDWWLGELEKDGSKGLFPSNYVSLGR [chain 1 N592R]
0.405 DMS score: mean over two replicates of log2(f_test/f_ref + 0.5)/ln 2, minus the synonymous-codon median (not a log2 …	chain 1 MALEPIDYTTHSREIDAEYLKIVRGSDPDTTWLIISPNAKKEYEPESTGSSFHDFLQLFDETKVQYGLARVSPPGSDVEKIIIIGWCPDSAPLKTRASFAANFAAVANNLFKGYHVQVTARDEDDLDENELLMKISNAAGARYSIQTSSKQQGKASTPPVKKSFTPSKSPAPVSKKEPVKTPSPAPAAKISSRVNDNNDDDDWNEPELKERDFDQAPLKPNQSSYKPIGKIDLQKVIAEEKAKEDPRLVQKPTAAGSKIDPSSDIANLKNESKLKRDSEFNSFLGTTKPPSMTESSLKNDDDKVIKGFRNEKSPAQLWAERKAKQNSGNAETKAEAPKPEVPEDEPEGEPDVKDLKSKFEGLAASEKEEEEMENKFAPPPKKSEPTIISPKPFSKPQEPVKAEEAEQPKTDYKKIGNPLPGMHIEADNEEEPEENDDDWDDDEDEAAQPPLPSRNVASGAPVQKEEPEQEEIAPSLPSRNSIPAPKQEEAPEQAPEEEIEEEAEEAAPQLPSRSSAAPPPPPRRATPEKKPKENPWATAEYDYDAAEDNELTFVENDKIINIEFVDDDWWLGELEKDGSKGLFPSNYVSLGY [chain 1 N592Y]
-1.94 DMS score: mean over two replicates of log2(f_test/f_ref + 0.5)/ln 2, minus the synonymous-codon median (not a log2 …	chain 1 MALEPIDYTTHSREIDAEYLKIVRGSDPDTTWLIISPNAKKEYEPESTGSSFHDFLQLFDETKVQYGLARVSPPGSDVEKIIIIGWCPDSAPLKTRASFAANFAAVANNLFKGYHVQVTARDEDDLDENELLMKISNAAGARYSIQTSSKQQGKASTPPVKKSFTPSKSPAPVSKKEPVKTPSPAPAAKISSRVNDNNDDDDWNEPELKERDFDQAPLKPNQSSYKPIGKIDLQKVIAEEKAKEDPRLVQKPTAAGSKIDPSSDIANLKNESKLKRDSEFNSFLGTTKPPSMTESSLKNDDDKVIKGFRNEKSPAQLWAERKAKQNSGNAETKAEAPKPEVPEDEPEGEPDVKDLKSKFEGLAASEKEEEEMENKFAPPPKKSEPTIISPKPFSKPQEPVKAEEAEQPKTDYKKIGNPLPGMHIEADNEEEPEENDDDWDDDEDEAAQPPLPSRNVASGAPVQKEEPEQEEIAPSLPSRNSIPAPKQEEAPEQAPEEEIEEEAEEAAPQLPSRSSAAPPPPPRRATPEKKPKENPWATAGYDYDAAEDNELTFVENDKIINIEFVDDDWWLGELEKDGSKGLFPSNYVSLGN [chain 1 E540G]
0.039 DMS score: mean over two replicates of log2(f_test/f_ref + 0.5)/ln 2, minus the synonymous-codon median (not a log2 …	chain 1 MALEPIDYTTHSREIDAEYLKIVRGSDPDTTWLIISPNAKKEYEPESTGSSFHDFLQLFDETKVQYGLARVSPPGSDVEKIIIIGWCPDSAPLKTRASFAANFAAVANNLFKGYHVQVTARDEDDLDENELLMKISNAAGARYSIQTSSKQQGKASTPPVKKSFTPSKSPAPVSKKEPVKTPSPAPAAKISSRVNDNNDDDDWNEPELKERDFDQAPLKPNQSSYKPIGKIDLQKVIAEEKAKEDPRLVQKPTAAGSKIDPSSDIANLKNESKLKRDSEFNSFLGTTKPPSMTESSLKNDDDKVIKGFRNEKSPAQLWAERKAKQNSGNAETKAEAPKPEVPEDEPEGEPDVKDLKSKFEGLAASEKEEEEMENKFAPPPKKSEPTIISPKPFSKPQEPVKAEEAEQPKTDYKKIGNPLPGMHIEADNEEEPEENDDDWDDDEDEAAQPPLPSRNVASGAPVQKEEPEQEEIAPSLPSRNSIPAPKQEEAPEQAPEEEIEEEAEEAAPQLPSRSSAAPPPPPRRATPEKKPKENPWATAEYDYDAAEDNELTFVENDKIINIEFVDDDWWLGELEKDGSKGFFPSNYVSLGN [chain 1 L582F]
